Data on three molecules can be found in paper PMC3681763 (2013).

As a reminder, the Kd is the constant that tells how readily two partners part at equilibrium. Read a low Kd as tighter binding.

Sequences and labels used below:
B1: Peptide aptamer PA #103 (anti-C2 domain), purified, in the D26A, K57E Thioredoxin scaffold (designed binder)
chain: SDKIIHLTDDSFDTDVLKADGAILVAFWAEWIQLRVRMKLVKMIAPILDEIADEYQGKLTVAELNIDQNPGTAPKYGIRGIPTLLLFKNGEVAATKVGALSKGQLKEFLDANLA
B2: (VC1)RAGE-GFP (domain or fragment)
chain: AQNITARIGEPLVLKCKGAPKKPPQRLEWKLNTGRTEAWKVLSPQGGGPWDSVARVLPNGSLFLPAVGIQDEGIFRCQAMNRNGKETKSNYRVRVYQIPGKPEIVDSASELTAGVPNKVGTCVSEGSYPAGTLSWHLDGKPLVPNEKGVSVKEQTRRHPETGLFTLQSELMVTPARGGDPRPTFSCSFSPGLPRHRALRTAPIQPRVWEPVPLEEVQLVVEPEG
B3: (C2)RAGE-GFP (domain or fragment)
chain: EPVPLEEVQLVVEPEGGAVAPGGTVTLTCEVPAQPSPQIHWMKDGVPLPLPPSPVLILPEIGPQDQGTYSCVATHSSHGPQESRAVSISIIEPGEEGPTAGSVGGS

Holding throughout (assay): ELISA
The assay “(C2)RAGE-GFP” addresses B3.
Assay [1] addresses Peptide aptamer PA #44 (anti-V domain), purified, in the D26A, K57E Thioredoxin scaffold (E. coli, UniProt P0AA25 = thioredoxin).
For the next assay, the target named is Apt#31.
The target in the next assay is Apt#48.
The target of assay [2] is Peptide aptamer PA #27 (anti-C1 domain), purified, in the D26A, K57E Thioredoxin scaffold (E. coli, UniProt P0AA25 = thioredoxin).
The target of assay [3] is Peptide aptamer PA #71 (anti-C2 domain), purified, in the D26A, K57E Thioredoxin scaffold (E. coli, UniProt P0AA25 = thioredoxin).

Take B1: the Kd with (C2)RAGE-GFP turned out to be 1340 nM.
B2: the Kd in assay [1] worked out at 164 nM; with Apt#31, 42 nM; with Apt#48, 152 nM; in assay [2] it was 32 nM.
In assay [3], B3 gave a Kd of 14500 nM.
